Assay results reported in patent US20150338398.
Read-outs that look alike come from different tables or passages of the source.

Tested on: TAL-PrA (GAL1 promoter TAL)
Settings: ChIP-qPCR

Substance | binding signal | also measured
AAATTAATCAGCGGTGAC (double strand) [REV7 similar site (ChrIX)] | 0.77 fold vs ACT1 | 
GAL1 promoter TAL target (ChrII 278829-278846) |  | binding signal (not enriched in glucose): 6.14 fold vs ACT1
GGGGTAATTAAAATTTCT (double strand) [IQG1 similar site (ChrXVI)] | 0.76 fold vs ACT1 | 
GGGGTAATTAATCATTTT (double strand) [SCC2 similar site (ChrIV)] | 0.65 fold vs ACT1 | 
GGGGTAATTAATGTAAAT (double strand) [IDP3 similar site (ChrXIV)] | 0.94 fold vs ACT1 | 
TTATACATTAATCAGCGA (double strand) [ENB1 similar site (ChrXV)] |  | binding signal (GAL1 at least 4.6-fold better): 1.34 fold vs ACT1
